# Reference: patent US9518268B2, “Drought tolerant transgenic plants and method of making same” (PURDUE RESEARCH FOUNDATION, priority 2013, dated 2016)
# Entries after “also recorded” stand apart in the source; their conditions may differ.
# Columns and labels:
# RD29B-LUC expression = test: Reconstituted ABA signaling pathway, transient expression in wild-type (Col-0) protoplasts; format: cell-based, Arabidopsis; conditions: for ABA-dependent induction of RD29B-LUC expression: co-transfected with ABI1, SnRK2.6 and ABF2, without or with 5 μM ABA, 4.5 h; for RD29B-LUC expression: SnRK2.6 and ABF2; for level of inhibition by PYL13 of the other PYL's activity: 2×PYL13 plasmid, ABI1, SnRK2.6, ABF2 co-expressed
# Experimental: To test whether PYL13 can act as an ABA receptor, the ABA signaling pathway in wild-type protoplasts was reconstituted. Turning now to FIG. 1, wild-type (Col-0) protoplasts were used in both panels A and B. After transfection, the protoplasts were incubated for 4.5 hours under light in the absence of ABA (open bars) or in the presence of 5 μM ABA (closed bars). Error bars indicate s.e.m. (n=3). […] ZmUBQ-GUS was used as the internal control. […] Instead, the ABA signaling pathway was reconstituted by co-expression of PYLs, ABI1, SnRK2.6, and ABF2. […] Therefore, the response of other members of the PYL family would not predict the response of PYL13 expression or over-expression in plants.
# PYL13 interacts with all clade A PP2Cs tested but binds most strongly to PP2CA. To investigate whether PYL13 inhibits PP2Cs in planta, PYL13 was co-expressed with all clade A PP2Cs in wild-type protoplasts, as shown in FIG. 4. Transfections of all PP2Cs together with SnRK2.6 and ABF2 inhibited RD29B-LUC expression to different degrees, see FIG. 4A, and the degree of inhibition was correlated with the intensity of interaction between PP2Cs and SnRK2.6 (Fujii et al., 2009). […] The ABA signaling pathway was reconstituted by co-expression of PYLs, PP2Cs, SnRK2.6, and ABF2. RD29B-LUC was used as the ABA-responsive reporter. ZmUBQ-GUS was used as the internal control. After transfection, protoplasts were incubated for 4.5 h under light in the absence of ABA (open bars) or in the presence of 5 μM ABA (closed bars). Error bars indicate s.e.m. (n=9).
# To investigate the physiological significance of the binding between PYL13 and PYLs in vivo, PYL13 was co-expressed with one of the other PYLs, ABI1, SnRK2.6, and ABF2 in wild-type protoplasts. When the transfected PYL13 plasmid was 2-fold of that of the other PYLs, co-transfections with PYL13 decreased the activity of the ABA-responsive PYLs (FIG. 5E). […] ZmUBQ-GUS was used as the internal control. After transfection, protoplasts were incubated for 4.5 h under light in the absence of ABA (open bars) or in the presence of 5 μM ABA (closed bars). Error bars indicate s.e.m. (n=3).
# The ABA signaling pathway was reconstituted by co-expression of PYL13, PYLs, ABI1, SnRK2.6, and ABF2. […] Error bars indicate s.e.m. (n=3). […] Without wishing to be bound by theory, PYL13 inhibition of other PYLs might result from direct interactions between PYL13 and other PYLs or from competition for the binding sites on PP2Cs.
# Assays for transient expression in protoplasts were performed as described (Fujii et al., 2009). Leaf strips (0.5 mm) were cut from the middle part of second leaves using a razor blade (VWR SCIENTIFIC) and submerged in 15 mL of enzyme solution containing 20 mM MES, pH 5.7, 1.5% (w/v) cellulase R10 (YAKULT PHARMACEUTICAL INDUSTRY), 0.4% (w/v) macerozyme R10 (YAKULT PHARMACEUTICAL INDUSTRY), 0.4 M mannitol, 20 mM KCl, 10 mM CaCl2, 1 mM 2-mercaptoethanol, and 0.1% BSA. The leaves were vacuum infiltrated for 30 min and then incubated without shaking for 3 h in the dark at room temperature. The enzyme/protoplast solution was diluted with 15 mL of W5 solution (2 mM MES, pH 5.7, 154 mM NaCl, 125 mM CaCl2, and 5 mM KCl) and filtered with a 75-μm nylon mesh. Protoplasts were centrifuged at 100 g for 2 min in a 30-mL round-bottomed tube (SARSTEDT), resuspended in W5 solution, and rested for 30 min at room temperature.
# Before transfection, protoplasts were changed into MMg solution (4 mM MES, pH 5.7, 0.4 M mannitol, and 15 mM MgCl2) to a final concentration of 2×10^5 cells per microliter. Protoplasts (100 μl) were gently and thoroughly mixed with the plasmid DNA mixture (less than 10 μl) and 110 μl of PEG solution (40% w/v PEG-4000, 0.2 M mannitol, and 100 mM CaCl2), incubated for 5 min, washed with 440 μl of W5 solution, and resuspended in 50 μl of WI solution (4 mM MES, pH 5.7, 0.5 M mannitol, and 20 mM KCl). After transfection, protoplasts were incubated in WI solution without ABA or with 5 μM ABA under light. […]
# clade A PP2Cs = test: Yeast two-hybrid assay of PYL13 with clade A PP2Cs; format: binding, Arabidopsis; conditions: ABA-independent
# Experimental: To investigate how PYL13 may function in plants, the interaction between PYL13 and clade A PP2Cs in yeast two-hybrid assays was examined, as shown in FIG. 3. […] PYL13 binds strongly with ABI1, ABI2, PP2CA, and HAI2 but weakly with HAB1 and HAI1 (FIG. 3A). […] PYL13 fused to the GAL4-DNA-binding domain (BD) was used as […], and PP2Cs fused to the GAL4-activating domain (AD) were used as baits. Interaction was determined by growth assay on media lacking His and His/Ade in the presence and absence of ABA. Dilutions (10^−1, 10^−2, and 10^−3) of saturated cultures were spotted onto the plates, which were photographed after 5 days.
Molecule,ABA-dependent induction of RD29B-LUC expression (RD29B-LUC expression),"binding in yeast two-hybrid assay (clade A PP2Cs; with ABI1, ABI2, PP2CA, and HAI2)",binding in yeast two-hybrid assay (clade A PP2Cs; with HAB1 and HAI1),"RD29B-LUC expression (RD29B-LUC expression; co-transfection with ABI1, ABI2, HAB1, HAB2, or AHG1)","RD29B-LUC expression (RD29B-LUC expression; co-transfection with PP2CA, HAI2, or HAI3)",level of inhibition by PYL13 of the other PYL's activity (RD29B-LUC expression; with PYL1),level of inhibition by PYL13 of the other PYL's activity (RD29B-LUC expression; with PYL2)
"PYL2: Arabidopsis thaliana PYL family ABA receptor protein PYL2, AT2G26040",enabled the expression; also recorded: restored RD29B-LUC expression,,,,,,
"PYL13: Arabidopsis thaliana PYR/PYL/RCAR family protein PYL13, SEQ ID NO: 1 (protein, listed as Arabidopsis thaliana) MESSKQKRCRSSVVETIEAPLPLVWSILRSFDKPQAYQRFVKSCTMRSGGGGGKGGEGKGSVRDVTLVSGFPADFSTERLEELDDESHVMVVSIIGGNHRLVNYKSKTKVVASPEDMAKKTVVVESYVVDVPEGTSEEDTIFFVDNIIRYNLTSLAKLTKKMMK",did not enable the expression,strongly,weakly,did not enable RD29B-LUC expression,enabled the ABA-dependent induction,67%,27%
